In patent US20240117018A1:

What was measured:
Assay in all cases: cell-based or functional assay
[1] = target: HIV-1 Env of pseudovirus 191084 B7-19 (HIV-1)
[2] = target: HIV-1 Env of pseudovirus 191955_A11 (HIV-1)
[3] = target: HIV-1 Env of pseudovirus 263-8 (HIV-1)
[4] = target: HIV-1 Env of pseudovirus 9004SS_A3_4 (HIV-1)
[5] = target: HIV-1 Env of pseudovirus 928-28 (HIV-1)

Which IC50 [1] does the source give for 3BNC117 (antibody) here?
The IC50 was 0.07 µg/mL.

And the IC80 [1]?
Its IC80 is 0.23 µg/mL.

And the IC50 [2]?
The IC50 was greater than 50 µg/mL.

What about the IC80 [2] of the same substance?
Its IC80 is greater than 50 µg/mL.

And the IC50 [3]?
The IC50 was 0.005 µg/mL.

What about the IC80 [3] of the same substance?
Its IC80 is 0.04 µg/mL.

What about the IC50 [4] of the same substance?
The IC50 was 0.07 µg/mL.

What about the IC80 [4] of the same substance?
The IC80 was 0.18 µg/mL.

And the IC50 [5]?
The IC50 was 0.15 µg/mL.

What about the IC80 [5] of the same substance?
Its IC80 is 0.55 µg/mL.

For VRC07 (antibody), which IC50 [1] is on record?
Its IC50 is 0.061 µg/mL.

And the IC80 [1]?
The IC80 was 0.209 µg/mL.

And the IC50 [2]?
The IC50 was 0.978 µg/mL.

And the IC80 [2]?
Its IC80 is 4.82 µg/mL.

And the IC50 [3]?
Its IC50 is 0.103 µg/mL.

What about the IC80 [3] of the same substance?
The IC80 was 0.282 µg/mL.

What about the IC50 [4] of the same substance?
The IC50 was 0.218 µg/mL.

What about the IC80 [4] of the same substance?
Its IC80 is 0.75 µg/mL.

What about the IC50 [5] of the same substance?
Its IC50 is 0.278 µg/mL.

And the IC80 [5]?
The IC80 was 0.957 µg/mL.

Which results are given for NIH 45-46 (antibody)?
IC50 [1]: 0.02 µg/mL; IC80 [1]: 0.07 µg/mL; IC50 [2]: 0.11 µg/mL; IC80 [2]: 0.43 µg/mL; IC50 [3]: 0.05 µg/mL; IC80 [3]: 0.1 µg/mL; IC50 [4]: 0.18 µg/mL; IC80 [4]: 0.65 µg/mL; IC50 [5]: 0.1 µg/mL; IC80 [5]: 0.39 µg/mL

For 8ANC195 (antibody), which IC50 [1] is on record?
Its IC50 is greater than 50 µg/mL.

And the IC80 [1]?
The IC80 was greater than 50 µg/mL.

What about the IC50 [2] of the same substance?
The IC50 was greater than 50 µg/mL.

What about the IC80 [2] of the same substance?
The IC80 was greater than 50 µg/mL.

What about the IC50 [3] of the same substance?
The IC50 was greater than 50 µg/mL.

And the IC80 [3]?
Its IC80 is greater than 50 µg/mL.

And the IC50 [4]?
Its IC50 is 0.17 µg/mL.

What about the IC80 [4] of the same substance?
The IC80 was 0.81 µg/mL.

And the IC50 [5]?
The IC50 was greater than 50 µg/mL.

What about the IC80 [5] of the same substance?
Its IC80 is greater than 50 µg/mL.
